{"source": "paper PMC10729762", "about": "“CsrA selectively modulates sRNA-mRNA regulator outcomes”", "binders": {"B1": {"name": "ChiX (structured_RNA)", "RNA": "ACACCGUCGCUUAAAGUGACGGCAUAAUAAUAAAAAAAUGAAAUUCCUCUUUGACGGGCCAAUAGCGAUAUUGGCCAUUUUUUU"}, "B2": {"name": "FnrS (structured_RNA)", "RNA": "GCAGGUGAAUGCAACGUCAAGCGAUGGGCGUUGCGCUCCAUAUUGUCUUACUUCCUUUUUUGAAUUACUGCAUAGCACAAUUGAUUCGUACGACGCCGACUUUGAUGAGUCGGCUUUUUUUU"}, "B3": {"name": "McaS (structured_RNA)", "RNA": "ACCGGCGCAGAGGAGACAAUGCCGGAUUUAAGACGCGGAUGCACUGCUGUGUGUACUGUAGAGUCUGGCGGAUGUCGACAGACUCUAUUUUUU"}}}
{"molecular_target": "CsrA;Hfq (Escherichia coli K-12 …, UniProt P69913;P0A6X3 1-61;1-102, |)", "sequence (P69913 whole entry, chain 1 of 2)": "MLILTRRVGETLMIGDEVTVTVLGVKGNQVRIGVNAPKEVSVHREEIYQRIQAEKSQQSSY", "sequence (P0A6X3 whole entry, chain 2 of 2)": "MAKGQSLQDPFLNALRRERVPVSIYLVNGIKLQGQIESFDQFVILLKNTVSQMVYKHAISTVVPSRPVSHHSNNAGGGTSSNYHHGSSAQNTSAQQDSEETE", "assay": "EMSA; 6 uM CsrA + Hfq, likely ternary complex; 10 nM denatured RNA, 0-6 uM CsrA, 0-3 uM Hfq; 1X binding buffer (10 mM Tris-HCl pH 7.5, 10 mM MgCl2, 100 mM KCl) plus CsrA dilution buffer, 11% glycerol, 20 mM", "conditions": "protein: recombinant;recombinant; tags: ;; chain copies: 2;6; label: internal 32P-UTP"}
{"binder": "B1", "binding result": "binds"}
{"binder": "B2", "binding result": "binds"}
{"binder": "B3", "binding result": "binds"}
